Patent US20120214173A1, “Methods of Identifying Modulators of an Ehd Polypeptide” (priority 2007, published 2012)
Entries after “also recorded” stand apart in the source; their conditions may differ.

T1: EHD2 (Mus musculus, UniProt Q8BH64)
T1 construct: Mouse EHD2 full-length protein and all mutants were expressed as N-terminal His-fusions followed by a PreScission cleavage site; His (N, cleaved yes); made in house; host or cells: Escherichia coli BL21 DE3 Rosetta
T1 sequence (Q8BH64 1-543): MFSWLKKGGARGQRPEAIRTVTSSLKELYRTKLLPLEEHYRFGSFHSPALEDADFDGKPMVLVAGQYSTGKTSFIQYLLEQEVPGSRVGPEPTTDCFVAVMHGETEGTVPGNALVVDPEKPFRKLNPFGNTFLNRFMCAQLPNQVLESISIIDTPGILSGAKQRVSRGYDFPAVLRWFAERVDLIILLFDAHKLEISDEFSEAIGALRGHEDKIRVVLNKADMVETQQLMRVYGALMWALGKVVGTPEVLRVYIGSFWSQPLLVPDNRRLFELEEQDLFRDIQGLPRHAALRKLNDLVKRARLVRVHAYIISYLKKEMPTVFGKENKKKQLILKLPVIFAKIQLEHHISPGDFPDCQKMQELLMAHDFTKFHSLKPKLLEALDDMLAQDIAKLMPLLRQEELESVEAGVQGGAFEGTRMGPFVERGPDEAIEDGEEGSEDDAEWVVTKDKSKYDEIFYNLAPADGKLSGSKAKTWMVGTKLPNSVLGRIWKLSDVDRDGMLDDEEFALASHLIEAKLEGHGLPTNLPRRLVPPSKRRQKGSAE

T2: EHD2(T72A) (Mus musculus, UniProt Q8BH64, T72A)
T2 construct: Mouse EHD2 full-length protein and all mutants were expressed as N-terminal His-fusions followed by a PreScission cleavage site; His (N, cleaved yes); made in house; host or cells: Escherichia coli BL21 DE3 Rosetta
T2 sequence (Q8BH64 1-543 T72A): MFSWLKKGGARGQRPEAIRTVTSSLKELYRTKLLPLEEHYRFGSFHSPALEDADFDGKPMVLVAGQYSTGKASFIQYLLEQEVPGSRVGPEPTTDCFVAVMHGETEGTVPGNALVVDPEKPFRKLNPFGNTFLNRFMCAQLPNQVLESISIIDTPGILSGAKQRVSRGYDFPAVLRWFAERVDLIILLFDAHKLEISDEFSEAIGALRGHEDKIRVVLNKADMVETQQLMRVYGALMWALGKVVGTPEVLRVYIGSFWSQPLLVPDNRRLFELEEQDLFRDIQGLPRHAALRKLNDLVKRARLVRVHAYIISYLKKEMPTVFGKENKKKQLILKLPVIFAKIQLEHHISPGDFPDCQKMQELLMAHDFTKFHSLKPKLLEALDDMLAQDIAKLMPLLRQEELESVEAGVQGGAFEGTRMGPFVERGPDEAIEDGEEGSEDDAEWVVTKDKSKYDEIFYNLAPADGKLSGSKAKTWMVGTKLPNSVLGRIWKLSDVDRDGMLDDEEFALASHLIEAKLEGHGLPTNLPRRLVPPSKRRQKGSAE

T3: T94A mutant of EHD2 (Mus musculus, UniProt Q8BH64, T94A)
T3 construct: Mouse EHD2 full-length protein and all mutants were expressed as N-terminal His-fusions followed by a PreScission cleavage site; His (N, cleaved yes); made in house; host or cells: Escherichia coli BL21 DE3 Rosetta
T3 sequence (Q8BH64 1-543 T94A): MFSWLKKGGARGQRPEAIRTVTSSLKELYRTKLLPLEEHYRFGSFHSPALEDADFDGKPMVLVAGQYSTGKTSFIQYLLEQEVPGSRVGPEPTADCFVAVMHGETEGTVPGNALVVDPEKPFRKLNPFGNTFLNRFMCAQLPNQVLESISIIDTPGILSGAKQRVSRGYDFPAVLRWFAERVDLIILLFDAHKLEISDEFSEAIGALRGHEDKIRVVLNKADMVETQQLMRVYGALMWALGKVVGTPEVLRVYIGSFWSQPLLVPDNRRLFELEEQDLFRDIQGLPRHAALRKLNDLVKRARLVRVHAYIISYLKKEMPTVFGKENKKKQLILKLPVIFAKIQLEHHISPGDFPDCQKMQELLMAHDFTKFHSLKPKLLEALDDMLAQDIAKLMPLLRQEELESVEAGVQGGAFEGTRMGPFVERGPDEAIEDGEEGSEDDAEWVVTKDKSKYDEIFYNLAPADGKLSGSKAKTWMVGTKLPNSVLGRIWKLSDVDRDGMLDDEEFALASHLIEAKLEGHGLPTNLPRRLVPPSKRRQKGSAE


Key:
EHD2 [1] = biological target: T1, EHD2; experiment: ITC nucleotide binding to EHD2; settings: ITC at 10° C.
Method: (§1) Amino acid numbering corresponds to mouse EHD2. b, EHD2 binds to adenine nucleotides, as determined by ITC. For clarity, ΔΔH=ΔHn−ΔH1 is plotted. […] Images were acquired close to the basal cell surface. f, Nucleotide hydrolysis was measured by HPLC in the absence (empty symbols) or presence of Folch liposomes (filled symbols). Data represent mean and standard deviation for two (intrinisic reactions) or three (stimulated reactions) independent experiments.
(§2) ITC measurements were performed at 10° C. in 20 mM HEPES (pH 7.5), 300 mM NaCl, 2 mM MgCl2. Liposome binding assays were performed as described previously (www.endocytosis.org). Multiple turnover ATPase assays were performed in 20 mM HEPES (pH 7.5), 135 mM NaCl, 15 mM KCl, 1 mM MgCl2 at 30° C. with 10 μM EHD2 (or mutants) as enzyme and 100 μM ATP as substrate, in the absence or presence of 1 mg/ml Folch liposomes (Sigma-Aldrich).
Mouse full-length EHD2 was expressed in bacteria and purified to homogeneity (FIG. 5). The purified protein was nucleotide-free as judged by HPLC analysis. […] It was previously reported that EHDs—despite having a predicted G-domain—bind to adenine nucleotides^15. […] We still refer to this domain as a G-domain because the sequence and fold (see below) are clearly similar to other G-domains. […] Using synthetic liposomes containing various different phosphatidyl-inositols (PI) (FIG. 1c) we observed best binding to liposomes containing PI(4,5)bisphosphate (PIP2).

EHD2(T72A) = biological target: T2, EHD2(T72A); experiment: ITC nucleotide binding to EHD2(T72A) P-loop mutant; settings: ITC at 10° C.
Method: as §1, §2
Mouse full-length EHD2 was expressed in bacteria and purified to homogeneity (FIG. 5). The purified protein was nucleotide-free as judged by HPLC analysis. […] It was previously reported that EHDs—despite having a predicted G-domain—bind to adenine nucleotides^15. […] We still refer to this domain as a G-domain because the sequence and fold (see below) are clearly similar to other G-domains. […]

T94A mutant of EHD2 = biological target: T3, T94A mutant of EHD2; experiment: ITC nucleotide binding to EHD2 T94A mutant; settings: ITC as in FIG. 1b
Method: Nucleotide hydrolysis was measured as described in FIG. 1f. In vitro tubulation activity of PS liposomes was analysed as described in FIG. 1d. f, EGFP-tagged mutants were over-expressed in HeLa cells. […] For each construct, three independent experiments with ≈50 cells/experiments were analysed.
as §2
In small GTPases, the role of positioning the water molecule is assigned to a catalytic glutamine from switch II^26. We studied the role of ATP hydrolysis to gain insights into the function of EHD2 in vivo. […] To confirm the role of ATP hydrolysis in EHD function we re-introduced a catalytic glutamine in the active site, at the position normally found for small GTPases (I157Q). […] Many of these puncta were highly mobile as determined by live-cell microscopy.

EHD2 [2] = biological target: T1, EHD2; experiment: Multiple turnover ATPase assay (nucleotide hydrolysis by HPLC) with or without Folch liposomes; assay type: biochemical; settings: presence of Folch liposomes
Method in brief: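 10 μM EHD2 with 100 μM ATP in 20 mM HEPES pH 7.5, 135 mM NaCl, 15 mM KCl, 1 mM MgCl2 at 30 °C, with or without 1 mg/ml Folch liposomes. Reactions started by protein addition; hydrolysis tracked by HPLC, initial rates from linear fit up to 40% hydrolysis.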

[3] = Negative stain EM of liposome tubulation/oligomerisation; settings: 2.5 μM protein, PS liposomes
Method: as §1
EHD2 was incubated with the indicated liposomes in the presence and absence of nucleotides and analysed by EM as described in Methods. a, EHD2 deformed PS liposomes into tubular networks, here in the presence of ATP-γ-S. b, Enlarged views of the indicated area in a. Note the presence of regularly spaced EHD2 rings (some are indicated with arrows). This even spacing may be due to the curvature stress generated by an EHD2 ring along the axis of the lipid tubule which might disfavour binding of the next ring in the direct vicinity (see below). c, Some of the lipid tubules (especially at higher protein concentration) were tightly packed with EHD2 oligomeric rings. d,e In the presence of ADP and in the absence of nucleotide (f,g), EHD2 also tubulated PS liposomes and formed ring-like structures around the tubules. e,g are enlarged views of the indicated areas in d and f, respectively.
Reactions were started by the addition of the protein to the final reaction mix and nucleotide hydrolysis was followed using standard HPLC measurement^27. Initial rates were determined by applying a linear fit to data points up to 40% nucleotide hydrolysis. For electron microscopic studies, 2.5 μM EHD2 in 20 mM HEPES (pH 7.5), 150 mM NaCl, 1 mM MgCl2 was incubated for 15 min at 25° C. in the presence of 1 mM nucleotide and 0.05 mg/ml (final concentration) of the indicated liposomes. Samples were spotted on carbon-coated copper grids (Canemco and Marivac) and negatively stained with 2% uranyl acetate.
Nucleotide-independence of liposome tubulation in vitro is also observed for dynamin^16. No noticeable tubule fission or alteration in tubule diameter was found for EHD2 in the presence of ATP. […] Folch liposomes were also tabulated by EHD2. However, with synthetic liposomes containing only 2.5% PIP2 and in the absence of PS, the amount of EHD binding was reduced, and in this less favourable binding condition we only observed tubulation in the presence of ATP-γ-S and ADP but not in the absence of nucleotides (FIG. 7).

HeLa cells = experiment: Over-expression of EGFP-tagged EHD2 and mutants in HeLa cells (confocal / live imaging); assay type: cell-based
[4] = biological target: the molecule itself; experiment: negative stain EM on PS liposomes

Row | n (fitted ITC value), nucleotide binding to EHD2 (EHD2 [1]) | Kd (EHD2 [1]; 20 mM HEPES (pH 7.5), 300 mM NaCl, 2 mM MgCl2, read-out: affinity to EHD2 determined by ITC) [µM] | affinity of the T94A mutant to ATP-γ-S by ITC (T94A mutant of EHD2) | Molecule | binding to EHD2(T72A) by ITC (EHD2(T72A)) | membrane-stimulated ATPase activity (in words) (EHD2 [2]) | liposome tubulation / oligomerisation by EM [3] | distribution of EGFP-tagged protein over-expressed in HeLa cells (HeLa cells; 24 h after transfection, fixed) | dynamics of tubules and puncta by EPI-fluorescence live imaging (HeLa cells; over-expressed 24 h, imaged approximately 30 min) | binding result [4]
1 | 0.96 | 13 ± 3 | nearly wild-type affinity | Nc1ncnc2c1ncn2[C@@H]1O[C@H](COP(=O)(O)OP(=O)(O)OP(O)(O)=S)[C@@H](O)[C@H]1O [ATP-γ-S] | no binding observed; also recorded: prevented binding |  |  |  |  | 
2 |  |  |  | EHD2 T94A (enzyme, mouse, UniProt Q8BH64 1-543, looked up, mature; also called T94A mutant) MFSWLKKGGARGQRPEAIRTVTSSLKELYRTKLLPLEEHYRFGSFHSPALEDADFDGKPMVLVAGQYSTGKTSFIQYLLEQEVPGSRVGPEPTADCFVAVMHGETEGTVPGNALVVDPEKPFRKLNPFGNTFLNRFMCAQLPNQVLESISIIDTPGILSGAKQRVSRGYDFPAVLRWFAERVDLIILLFDAHKLEISDEFSEAIGALRGHEDKIRVVLNKADMVETQQLMRVYGALMWALGKVVGTPEVLRVYIGSFWSQPLLVPDNRRLFELEEQDLFRDIQGLPRHAALRKLNDLVKRARLVRVHAYIISYLKKEMPTVFGKENKKKQLILKLPVIFAKIQLEHHISPGDFPDCQKMQELLMAHDFTKFHSLKPKLLEALDDMLAQDIAKLMPLLRQEELESVEAGVQGGAFEGTRMGPFVERGPDEAIEDGEEGSEDDAEWVVTKDKSKYDEIFYNLAPADGKLSGSKAKTWMVGTKLPNSVLGRIWKLSDVDRDGMLDDEEFALASHLIEAKLEGHGLPTNLPRRLVPPSKRRQKGSAE |  | did not show any membrane-stimulated ATPase activity | oligomerised around PS liposomes | extensive tubulation with no punctate stained; also recorded: labelled extensive tubular structures with essentially, no punctate staining | only tubules, and these are mostly static | binds
